The term stoichiometry N denotes the number of molecules, sites or subunits per partner or assembly.

Data set [1] deals with the molecule itself. Kind of data set: native MS; complex at about 4 µM in 200 mM ammonium acetate pH 7.0 with 2 mM OGNG, released from OGNG micelles, Q Exactive UHMR, positive mode.
For data set [2], the target named is T1, 4F2 cell-surface antigen heavy chain (4F2hc, SLC3A2), fully glycosylated (human, UniProt P08195-1 1-630, four highly branched, sialylated N-glycans at Asn365, Asn381, Asn424 and Asn506 (9 to 16 sialic acid residues); one phosphorylation site (residue not given)).
T1 construct: 4F2 cell-surface antigen heavy chain (4F2hc, SLC3A2), human, full-length cDNA in pCAG; source: HEK293F, co-transfected with LAT1, purified (anti-Flag M2 resin, Ni-NTA, SEC) in digitonin
T1 sequence (looked up): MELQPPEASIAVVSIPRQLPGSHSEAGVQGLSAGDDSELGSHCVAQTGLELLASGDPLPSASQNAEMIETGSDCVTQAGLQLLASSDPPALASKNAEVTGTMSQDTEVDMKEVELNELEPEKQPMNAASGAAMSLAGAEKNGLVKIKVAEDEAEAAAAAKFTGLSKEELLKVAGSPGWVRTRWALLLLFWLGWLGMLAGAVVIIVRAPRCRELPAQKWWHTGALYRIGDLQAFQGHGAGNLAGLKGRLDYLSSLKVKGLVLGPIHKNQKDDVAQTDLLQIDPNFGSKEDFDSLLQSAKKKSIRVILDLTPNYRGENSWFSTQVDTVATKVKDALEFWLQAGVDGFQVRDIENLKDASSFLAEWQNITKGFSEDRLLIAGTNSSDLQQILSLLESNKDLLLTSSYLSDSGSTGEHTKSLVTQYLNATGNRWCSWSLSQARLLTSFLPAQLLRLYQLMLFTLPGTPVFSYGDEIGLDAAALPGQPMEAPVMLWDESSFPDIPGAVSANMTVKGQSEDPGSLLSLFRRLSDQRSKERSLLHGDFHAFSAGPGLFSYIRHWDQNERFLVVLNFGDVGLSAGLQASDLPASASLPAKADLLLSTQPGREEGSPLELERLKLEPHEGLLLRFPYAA
Described as above. Conditions: both partners purified.

The target of data set [3] is T2, 4F2hc, desialylated (neuraminidase-treated) (human, UniProt P08195-1 1-630, N-glycans at Asn365, Asn381, Asn424 and Asn506 without sialic acid (neuraminidase); fucosylation and branching retained).
T2 construct: 4F2 cell-surface antigen heavy chain (4F2hc, SLC3A2), human, full-length cDNA in pCAG; also called desialylated 4F2hc; source: HEK293F, co-transfected with LAT1, purified, then neuraminidase digestion
T2 sequence (looked up): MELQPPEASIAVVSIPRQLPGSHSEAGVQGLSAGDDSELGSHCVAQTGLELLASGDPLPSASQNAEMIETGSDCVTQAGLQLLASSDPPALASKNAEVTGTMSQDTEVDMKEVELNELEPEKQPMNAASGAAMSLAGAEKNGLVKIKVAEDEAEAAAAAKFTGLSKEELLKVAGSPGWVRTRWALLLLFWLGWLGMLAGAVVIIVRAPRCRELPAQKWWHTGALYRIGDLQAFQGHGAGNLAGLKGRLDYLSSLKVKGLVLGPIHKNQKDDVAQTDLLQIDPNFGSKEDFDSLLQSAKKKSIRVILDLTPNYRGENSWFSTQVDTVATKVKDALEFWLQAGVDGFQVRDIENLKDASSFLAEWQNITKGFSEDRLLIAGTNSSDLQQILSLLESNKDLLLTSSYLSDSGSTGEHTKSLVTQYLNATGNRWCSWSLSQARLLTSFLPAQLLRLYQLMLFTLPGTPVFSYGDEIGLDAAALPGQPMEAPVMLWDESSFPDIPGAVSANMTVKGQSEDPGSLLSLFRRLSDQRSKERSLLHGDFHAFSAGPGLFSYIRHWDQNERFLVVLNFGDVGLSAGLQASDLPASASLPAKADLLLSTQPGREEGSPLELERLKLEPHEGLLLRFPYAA
The description is as above. Conditions: both partners purified.

Data set [4] concerns the molecule itself. Kind of data set: native MS; LAT1 alone; sample and conditions not told in the text (Supplementary Fig. 12C).

B1: LAT1-4F2hc heterodimer, wild type, fully glycosylated (complex)
chain 1: not shown
chain 2: MELQPPEASIAVVSIPRQLPGSHSEAGVQGLSAGDDSELGSHCVAQTGLELLASGDPLPSASQNAEMIETGSDCVTQAGLQLLASSDPPALASKNAEVTGTMSQDTEVDMKEVELNELEPEKQPMNAASGAAMSLAGAEKNGLVKIKVAEDEAEAAAAAKFTGLSKEELLKVAGSPGWVRTRWALLLLFWLGWLGMLAGAVVIIVRAPRCRELPAQKWWHTGALYRIGDLQAFQGHGAGNLAGLKGRLDYLSSLKVKGLVLGPIHKNQKDDVAQTDLLQIDPNFGSKEDFDSLLQSAKKKSIRVILDLTPNYRGENSWFSTQVDTVATKVKDALEFWLQAGVDGFQVRDIENLKDASSFLAEWQNITKGFSEDRLLIAGTNSSDLQQILSLLESNKDLLLTSSYLSDSGSTGEHTKSLVTQYLNATGNRWCSWSLSQARLLTSFLPAQLLRLYQLMLFTLPGTPVFSYGDEIGLDAAALPGQPMEAPVMLWDESSFPDIPGAVSANMTVKGQSEDPGSLLSLFRRLSDQRSKERSLLHGDFHAFSAGPGLFSYIRHWDQNERFLVVLNFGDVGLSAGLQASDLPASASLPAKADLLLSTQPGREEGSPLELERLKLEPHEGLLLRFPYAA
modifications: phosphoserine at S35 (mono-phosphorylated proteoform, part of the population) | four highly branched, sialylated N-glycans at Asn365, Asn381, Asn424 and Asn506 (9 to 16 sialic acid residues); one phosphorylation site (residue not given)
notes: L-type amino acid transporter 1 (LAT1, SLC7A5), human, full-length cDNA in pCAG; 4F2 cell-surface antigen heavy chain (4F2hc, SLC3A2), human, full-length cDNA in pCAG; The two chains are joined by a disulfide bond; Two such heterodimers form the super-dimer (LAT1-4F2hc)2; also called LAT1-4F2hc complex; SLC7A5-SLC3A2; source: HEK293F, co-transfected, purified (anti-Flag M2 resin, Ni-NTA, SEC) in …
In the case of B1, the “stoichiometry N” value in data set [1] stood at 2.

B2: L-type amino acid transporter 1 (LAT1, SLC7A5) (natural protein)
chain: not shown
modifications: phosphoserine at S35 (mono-phosphorylated proteoform, part of the population)
notes: L-type amino acid transporter 1 (LAT1, SLC7A5), human, full-length cDNA in pCAG; also called light chain; source: HEK293F, co-transfected with 4F2hc, purified (anti-Flag M2 resin, Ni-NTA, SEC) in digitonin
For B2, the binding result in data set [2] and in data set [3] was “binds” throughout. Further, in data set [4], the “stoichiometry N” value is 2.

Source of the values: publication PMC11065870, “The complete assembly of human LAT1-4F2hc complex provides insights into its regulation, function and localisation” (Nature Communications, 2024).
